Data from US20240166747A1 (GlaxoSmithKline, published 2024).

B1: 42Y073-86F08-66 (antibody, human IgG1, kappa)
heavy: not shown
light: DIQLTQSPSSLSASVGDRVTITCRASQSISSYLNWYQQKPGKAPKLLIYAASSLQSGVPSRFSGSGSGTDFTLTISSLQPEDFATYYCQQVLHTITFGGGTKVEIKRTVAAPSVFIFPPSDEQLKSGTASVVCLLNNFYPREAKVQWKVDNALQSGNSQESVTEQDSKDSTYSLSSTLTLSKADYEKHKVYACEVTHQGLSSPVTKSFNRGEC
notes: expressed in CHO or HEK cells; also called GSK 6097608; GSK6097608
B2: 42Y073-86F08-3 (antibody, V domains shown)
VH: QVQLVQSGAEVKKPGSSVKVSCKASGGTFVNYAISWVRQAPGQGLEWMGGIIPALGTANYAQKFQGRVTITADESTSTAYMELSSLRSEDTAVYYCARGAGYYGDKDPMDVWGQGTTVTVSS
VL: DIQLTQSPSSLSASVGDRVTITCRASQSISSYLNWYQQKPGKAPKLLIYAASSLQSGVPSRFSGSGSGTDFTLTISSLQPEDFATYYCQQVLHTITFGGGTKVEIK

Columns and labels:
[1] = molecular target: T1, native cynomolgus monkey CD96 on primary cynomolgus monkey T cells (cynomolgus monkey, UniProt A0A2K5TWV6 22-569); assay: flow cytometry on activated primary cynomolgus monkey T cells (PE median MFI), pooled donor
T1 construct: whole, on cells
T1 sequence: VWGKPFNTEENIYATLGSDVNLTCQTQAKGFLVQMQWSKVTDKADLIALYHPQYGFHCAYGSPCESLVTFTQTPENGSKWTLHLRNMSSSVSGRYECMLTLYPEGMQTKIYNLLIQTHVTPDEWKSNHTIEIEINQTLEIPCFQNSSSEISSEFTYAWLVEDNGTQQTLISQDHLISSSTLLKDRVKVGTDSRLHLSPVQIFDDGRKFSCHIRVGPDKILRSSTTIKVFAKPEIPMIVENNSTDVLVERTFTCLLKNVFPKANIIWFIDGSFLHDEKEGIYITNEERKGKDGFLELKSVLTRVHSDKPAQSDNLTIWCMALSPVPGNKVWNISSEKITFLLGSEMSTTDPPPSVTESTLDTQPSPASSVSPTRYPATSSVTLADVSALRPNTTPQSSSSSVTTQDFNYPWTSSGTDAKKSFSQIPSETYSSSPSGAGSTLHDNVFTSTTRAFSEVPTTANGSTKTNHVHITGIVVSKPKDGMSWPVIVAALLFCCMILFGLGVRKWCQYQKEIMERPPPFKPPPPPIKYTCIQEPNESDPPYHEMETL

[2] = molecular target: T2, human CD96v1 expressed on HEK cells (human, UniProt P40200 22-585); assay: flow cytometry on transiently transfected HEK cells (normalised MFI), upper left panel
T2 construct: whole, on cells
T2 sequence (looked up): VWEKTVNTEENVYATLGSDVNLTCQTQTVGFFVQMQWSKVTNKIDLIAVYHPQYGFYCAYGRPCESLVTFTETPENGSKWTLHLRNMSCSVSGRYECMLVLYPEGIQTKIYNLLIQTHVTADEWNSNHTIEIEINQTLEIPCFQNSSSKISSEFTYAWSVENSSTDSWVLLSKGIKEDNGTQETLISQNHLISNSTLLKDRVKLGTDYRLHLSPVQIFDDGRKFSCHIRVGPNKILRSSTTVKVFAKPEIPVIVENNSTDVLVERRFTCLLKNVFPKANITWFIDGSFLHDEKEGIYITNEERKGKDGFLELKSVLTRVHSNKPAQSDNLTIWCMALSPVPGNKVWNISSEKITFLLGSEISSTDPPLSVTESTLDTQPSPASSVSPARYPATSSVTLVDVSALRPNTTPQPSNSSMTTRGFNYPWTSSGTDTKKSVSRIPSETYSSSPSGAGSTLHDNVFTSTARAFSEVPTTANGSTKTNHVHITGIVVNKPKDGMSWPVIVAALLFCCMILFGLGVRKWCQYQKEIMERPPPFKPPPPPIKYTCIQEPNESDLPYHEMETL

[3] = molecular target: T3, cynomolgus monkey CD96v2 expressed on cells (cynomolgus monkey, UniProt A0A2K5TWV6 22-569); assay: as above
T3 construct: also called CHO-cyCD96; Cyno CD96v2
T3 sequence: T1 sequence

[4] = molecular target: T3, cynomolgus monkey CD96v2 expressed on …; assay: flow cytometry, CHO cells expressing cynomolgus CD96v2
Experimental: CHO cells expressing human CD96v2 or cynomolgus monkey CD96v2 were prepared in PBS. The cynomolgus monkey CD96v2 cells were stained with 1 μM violet proliferation dye (VPD450). […] The stained CHO-cyCD96 and unstained CHO-huCD96 cells were combined and added to wells of a 384-well assay plate together with dilutions of test anti-CD96 binding proteins for 1h at 4° C. Cells were further incubated with anti-IgG APC conjugate antibody and the amount of surface bound antibody on each of the CHO-cyCD96 and CHO-huCD96 cells was determined by flow cytometry. Median fluorescence intensity (MFI) values were fitted using a 4 parameter logistic model to calculate the EC50 of binding.

Binder	EC50 (read off the curve) [1] [nM]	EC50 (read off the curve) [2] [nM]	EC50 (read off the curve) [3] [nM]	EC50 [4] [nM]
B1	~0.06	~4	~8	–
B2	–	–	–	0.08
